Measured values published in the nanobody polyreactivity screen of Harvey et al. (2022).

Assay: yeast display, Sf9 membrane polyspecificity reagent, FACS + sequencing; frameworks hold sequencing errors
Method in brief: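 Polyreactivity labels are assigned by the sorting gate from which each nanobody was recovered. The gates were low and high (top ~1%), set on anti-HA fluorescence for expression and streptavidin fluorescence for reagent binding. Before sorting, galactose-induced (36–48 hours) yeast display cells were stained for 1 hour at 4 °C with 10% biotinylated, detergent-solubilized Sf9 membrane reagent.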

Row | Sequence | polyreactivity (PSR sort gate)
1 | QVQLVESGGGLVQAGGSLRLSCAASVFTFVRYSMGWYRQAPGKERELVAAISSGGRTYYADSVKGRFTISRDNAKYTVYLQMNSLKPEDTAVYYCAADTKFGYGYWGQGTQVNVSS | high polyreactivity
2 | QVQLVESGGGLVQAGGSLRLSCAASGNIFAWYAMGWYRQAPGKERELVADISSRGGSSYYADSVKGRFTISRDTAKNTVYLQMNSLKPEDTAVYYCAAVWYWTQDYDYWGQGTQVTVSS | low polyreactivity
3 | QVQLVESGGSLVQAGGSLRLSCAASGRTFGYNGMGWYRQAPGKERELVAAITNDGGNTNYADSVKGRFTISRDNAKNTVYLQMNSLKPEDTAVYYCNADRTQDRNPYTYATFDYWGQGTQVTVSS | low polyreactivity
4 | QVQLLESGGGLVQAGGSLSLSCMASGSILGDRMSWYRQAPGKEHELVATIYDGGITYYADSMKGRFTISRDNAKNTVYLQMNSLRPEDTAVYYCGASFEGYRYHVYCGQGTQVTVSS | low polyreactivity
5 | QVQLVESGGGLVQAGGSLRLSCAASGSIFGSNAMGWYRQAPGKERELVASITSSGGSTHYADSVKGRFTISRDNAKNTVYLQMNSLKPEDTAVYYCATRAYGYYRWLYDYWGQGTQVTVSS | low polyreactivity
6 | QVQLVESGGGLVQAGGSLRISCAASGNIFDRYAMGWYRQAPGKEMELVAGITWSGGSTYYADSVKGRFTISRDNAKNTVYLQMNSLKPEDTAVYYCAKDPHGSDFGYWGQGTQVTVSS | low polyreactivity
7 | QVQLVESGGGLVQAGGSLRLSCAASGRIFYYYAMGWYRQAPGKEREFVAAITGRGGSTYYADSVKGRFTISRDNEKNTVYLQMYSLKPEDTAVYYCNAGQYFEYYGWYSRYGYWGQGTQVTVSS | low polyreactivity
8 | QVQLVESGGGLVQAGGSLRLSCAASGRIFSKYAMGWYRQAPGKERELVASIRWRGDRTYYADSVKGRFTISRDNAKNTVDLQMNSLIPEDTAVYYCAADEPGYGVGYWTYPVVPYDYWGQGTQVTVSS | low polyreactivity
9 | QVQLVESGVGLVQAGGSLRLSSAASGFTFIYYAMGWYRQAPGKERELVAAITSGGNTYYADSVKGRFTISRDNAKNTDYLQMNSLTPEDPAVYYCNKVPHREWVGGYDYWGQGTQVTVSS | low polyreactivity
10 | QVQLVESGGGLVQAGGSLRLSCAASGRIFNYYAMGWSRQAPGKERELVAAIRTGGSTYYADSVKGRFTISRDNAKNTVYLQMNSLKPEDTAVYYCARLVYYSSPYGYWGQGTQVTVSS | high polyreactivity
11 | QVQLVESGGGLVQAGGSLRLSCAASGSTFKRYAMGWYRQAPGKERALVASISSGGSTNYADSVKGRFTISRDNAKNTVYLQMHSLKPEDTAVYYCAVSYRSFRYYWERYYSWGQGTQVTVSS | high polyreactivity
12 | QVQLVESGGGLVQAGGSLRLSCAASGTIFTHNAMGWYRQAAGKEREFVAAISSGGSTNYADSVNGRFTISRDNAKNTVYLQMNSLKPQDTAVYYCAKSIDGWYWRRRRYDYWGHGTQVTVSS | low polyreactivity
13 | QVQLVESGGGLVQAGGSLRLSCAPSGFIFRLNGMGWYIQAPGKERELVATIDSGSSTNYADSVKGRFTISRDNAKNTVYLQMNSLKPEDTAVYYCAAVVISYYTHGDYDYWGQGTQVTVSS | low polyreactivity
14 | QVQLVESGGGLVQAGGSLRLSCAASGSISYFNAMGWYRQAPGKERELVAAIDVSGDSTYYADSVKGRCTISRDNAKISLYLQMNSLKPEDTAVYYCAKDPTSWYRTFGHSYYWYDYWGQGTQVTVSS | low polyreactivity
15 | QVQLVESGGGLVQAGGSLRLSCAASGITFWKYTMGWYIPAPGKERELVASIRIGGSTYYADSVKGRFTISRDNAKNTVYLQMNSLKPEDTAVYYCAAKGIYGLQGSPRSGYYYWGQGTQVTVSS | high polyreactivity
16 | QVQLVESGGGLYQAGGSLRLSCAASGIIFKSYLMGWDRQAPGKEREFVARITYRGGSTYYADSVKGRFTISRDNAKYTFNLQMNSLNQEDTAVYYCIARVRRRRYKYDYWGQGTQVTVST | high polyreactivity
17 | QVQLVESGGGIVQAGGSLRLSCAASGLNFYWYAMGWYRQAPGKERELVAAITWSGGITYYADSVKGRFTISRDNANNTVYLQMNSLNPEDTAVYYCADDDDYGDVTYDYWGHGTQVTVSS | low polyreactivity
18 | QVQLVESGGGLVQAGGSLRLSCAASGRTLTGNAMGWYRQAPGKERELVAAITARGGSTYYADSVKGRFTISRDIAKNTVYLQMNSLKPEDSAVYYCATLPVRIRRDYWGQGTQVTVSS | high polyreactivity
19 | QVQLVESGGGLVQAGGSLRISCAPSGRTFGINAMGWYRQAPGKERELVAVISFGDGGTYYADSVKGRFTISRDNAKNTVYLQMNSLKPEDTAVYYCATDYQSTSVWGGHFVINPYDYWGQGTQVTVSS | low polyreactivity
20 | QVQLVESGGGLVQAGGSLRLSCAASGRTFVLNAMGWYRQAPGKERELVAAITLGGGSTYADSVKGRLTISRDNAKNTVYLQMNSLKPEDTEVYYCNKASGVFYGHLDYWGQGTQVTVSS | low polyreactivity
21 | HVQLVESGGGLVQAGASLRLSCAASGRTFGRYAMGWSRQAPGKERELVAAIRSGGSTYYADSVKGRFTISRDNAKNTVYLQMNSLNPEDPAVYYCAADIARHLTGFAYDRLDYCGQGTQVTVSS | low polyreactivity
22 | QVQLVESGGGLVQAGGSLRLSCAASGLTFWRYTMGWYRPAPGKERELVAVITYRGGSTYYADSVKGRFTISRDNAKNTVYLQMNSLKPEDTAVYYCDAGRRTYGLTYDYWGQGTQVTVSS | high polyreactivity

Row | Sequence | polyreactivity (PSR sort gate)
23 | QVQLVESGGGLVQAGGSLRLSCAASGLIFRYNAMGWYRQAPGKEMELVASITSDGSTNYADSVKGRFTISRDNAKNTVYLQMNSLKPEDTAVYYCAADGYTYWYYQLIPDYDYWGQGTQVTVSS | low polyreactivity
24 | QVQLVESGGGLVQAGGSLRLSCAASGSTFIRYAMGWYRQAPGKERELVAAISSGGGNTYYADSVKGRFTISRDNAKNTVYLQMDSLKPEDTAVYYCAARYLAYGPTGYLYGYNYWGQGTQVTVSS | high polyreactivity
25 | QVQLVESGGGLVQAGGSLRLSCAASGRIFLDNTMGGYRQATGKERELVATISSGASTNYADSVKGRFTISRDNAKNTVYLQMNSLKPEDTGVYYCNARVGGYPLWYKKYYYWGQGTQVNVSS | low polyreactivity
26 | QVQLVESGGGLVQAGGSLRLSCAASGSIFAAYTMGWYRQAPGKERELVAAISVSTVSTYYADSVKGRFTISRDNAKISVYLQMNSLKPEDTAVYYCNADSTTQDYDYWGQGTQVTVSS | low polyreactivity
27 | QVQLVESGGGLVQAGGSLRISCAASGSIFLYNDMGWYRQAPGKERELVAAITSTGNTNYADSVKGRFTISRDNAKNTVYLQMNSLNRKRPRSITALNVSCTSVVVGYDYWGQGTQVTVSS | low polyreactivity
28 | QVQLVESGGGLVQAGGSLRLSCAASGFTFEYYAMGWYRQAPGKERELVATITSGGSTYYADSVKGRFTISRDNAKNTVYLQMNSLKPDDTAVYYCITSSPWIEDYWGQGTQVTVSS | low polyreactivity
29 | QVQLVESGGGLVQAGGSLRLSCAASGSIFKYYTMGWYRQAPGKERELVASINGGGSTNYADSVKGRFTISRDNAKNTVYLQMNSLKPEDTAVYYCNARYWWQDGYWGQGTQVTVSS | high polyreactivity
30 | QVQLVESGGGLVQAGGSLRLSCAASISSINAMGWYRQAPGKERELVAAIRWSGSSTYYADSVKGRFTISRDNAKNTVYLQMNSLKPEDTAVYYCAADTTTGDRGFDYWGQGTQVTVSS | high polyreactivity
31 | QFQLVESGGGIVQAGGSHRVICAASASTFARNAMGWYRQATGKESEFVATISSSGGRTYYADSVKGRFTISRDNAKNTVYLQMNSLKPEDTAVYYCAADYHIVWYEEYSWGQGTQVTVSS | high polyreactivity
32 | QVQLVESGGGLVQAGGSLRLSCAASGSTFYTNAMGWYTQAPGKERELVAAISGSGGSTYYADSVKGRFTISRDNAKNTVYLQMNSLKPEDTAVYYCAARSRYYDTRFDYWGQGTQVTVSS | low polyreactivity
33 | QVQLVESGGGLVQAGGSLRLSCAASGSTFTSYAMGWYRQAPGKERELVAAIRYRGDGTYYADSVKGRCTISRDNAKNTVNLQMNSLKPEDNAVYYCAADTTLQAFIRYRPIGSYDSWGQGTKVTVSS | low polyreactivity
34 | QVQLVESGGGLVQAGGSLRLSCAASGLIFARNAMGWYRQAPGKERELVAAISSSGNTYADSVKGRFTISRDNAKNTVYLQMNSLKPEDTAVYYCNKYGVVLPGFDYWGQGTQVTVSS | high polyreactivity
35 | QVQLVESGGGLVQAGGSLRLSCAASGNTFFPYTMGWYRQAPGKERELVAAITWSGVSTYYADSVKGRFTISRDNAKNTVYLQMNSLKPEDTAVYYCAARGPVYVSYPRQYGYWGQGTQVTVSS | high polyreactivity
36 | QVQLVESGGGLVQAGGSLRLSCAASGLIFNYYAMGWYRQAPGKERELVAAISYNGGTTYYADSVKGRFTISRDNAKNTVYLQMNSLKPEDTAVYYCAAEQLVSGYDYWGQGTQVTVSS | low polyreactivity
37 | QVQLVESRGGLVQAGGSLRLSCAASGRIFETNTMGWYRQAPGKEREFVAAITFSGGRTNYADSVKGRFTISRDNAKNTDYLPMNSLKPEDTAVYYCAAAGRRRKYYYWGQGTQVTVSS | high polyreactivity
38 | QVQLVESGGGLVQAGGSLRLSCAASGSIFGRNTMGWYRQAPGKERELVAAISSRGTSTYYADSVKGRFTISRDNAKNTVYLQMNSLKPEDTAVYYCAARVYPYNYWGQGTQVTVSS | high polyreactivity
39 | QVQLVESGGGLVQARGSLRLSCAASGSIFGYNVMGWYRQAPGIERELVAAITVNGGRTYYADSVKGRFTISRDNAKNTVYLQMNSLIPEDTAVDDCAARVTGTQRSGYYWGQGTQVTVSS | high polyreactivity
40 | QVQLVESGGGLVQAGCSLRLSCAASGLIFSKNVMGWYRQAPGKERELVAAISQRGGSTYYADSVKGRFTISRDNAKNTVYLQMNSLKPEDTAVYYCAADNSVSHEDYWGQGTQVTVSS | high polyreactivity
41 | QVQLVESGGGLVQAGGSLRLSCAASGITLSTYAMGWYRPAPGKERELVATITGNGDRTYYADSVKGRFTISRDNAKNTVYLQMNSLKPEDTAVYYCAKDSPGDGIGYGYWGQGTQVTVSS | low polyreactivity
42 | QVQHVESGGGLVQAGGSLRLSCAASGRILVSYAMGWYRQAPGKERELVAAISRSGGSTYYADSVKGRFTISRDNAKNTVYLQMNCLKPEDTAVYYCATGLYIQSTYHRYERYNYWGQGTQVTVSS | high polyreactivity
43 | QVQLVESGGGLVQAGGSLRLSCAASGFIFIYYAMGWYRQAPGKERELVAGITSGGSTNYADSVKGRFTISRDNAKNTVYLQMNSLKPEDTAVYYCAAGSSARWYPRYNYWGQGTQVTVSS | high polyreactivity
